According to US20220041702A1 (Innovent, published 2022):

T1: GITR expressed on cell surface (CHO cells overexpressing GITR) (Homo sapiens (Human), UniProt Q9Y5U5 26-241)
T1 construct: also called GITR on cell surface
T1 sequence: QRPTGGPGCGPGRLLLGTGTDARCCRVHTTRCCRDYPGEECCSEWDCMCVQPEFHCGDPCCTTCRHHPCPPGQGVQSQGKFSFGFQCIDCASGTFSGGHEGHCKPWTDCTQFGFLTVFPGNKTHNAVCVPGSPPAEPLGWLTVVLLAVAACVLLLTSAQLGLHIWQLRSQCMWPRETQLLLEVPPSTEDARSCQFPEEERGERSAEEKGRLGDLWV

T2: human OX40 expressed on the surface of cells (CHO cells overexpressing human OX40) (human, UniProt P43489 29-277)
T2 construct: whole, on cells; also called CHO-OX40 cells; CHO cells overexpressing OX40
T2 sequence (looked up): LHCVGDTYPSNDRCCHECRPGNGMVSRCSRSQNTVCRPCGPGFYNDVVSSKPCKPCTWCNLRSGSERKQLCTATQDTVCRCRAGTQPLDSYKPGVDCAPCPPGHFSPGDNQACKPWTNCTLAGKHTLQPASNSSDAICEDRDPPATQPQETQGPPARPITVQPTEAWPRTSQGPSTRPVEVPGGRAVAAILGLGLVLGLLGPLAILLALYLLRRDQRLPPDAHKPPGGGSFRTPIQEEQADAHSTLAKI

T3: human OX40-his (human, UniProt P43489 29-216)
T3 construct: Bought soluble protein
T3 sequence (looked up): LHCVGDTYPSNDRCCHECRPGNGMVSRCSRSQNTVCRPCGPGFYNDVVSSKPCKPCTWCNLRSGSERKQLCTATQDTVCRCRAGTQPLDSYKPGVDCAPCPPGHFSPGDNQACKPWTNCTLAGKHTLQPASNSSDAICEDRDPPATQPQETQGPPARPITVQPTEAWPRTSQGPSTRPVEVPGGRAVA

B1: IgG1 control antibody (antibody, V domains shown)
VH: EVRLLESGGGLVQPGGSLRLSCAASGFTFSNYAMGWVRQAPGKGLEWVSAISGSGGSTYYADSVKGRFTTSRDDSKNALYLQMNSLRAEDTAVYYCARGGPGWYAADVWGQGTTVTVSS
VL: DIQMTQSPSSLSASVGDRVTITCRASQSISSYLNWYQQKPGKAPKLLIYAASSLQSGVPSRFSGSGSGTDFTLTISSLQPEDFATYYCQQADLPAFAFGGGTKVEIKR
notes: Negative control; also called IgG1 negative control
B2: anti-OX40 antibody ADI-20112 (antibody, human IgG1, kappa, V domains shown)
VH: QVQLVESGGGVVQPGRSLRLSCAASGFTFSSYGMHWVRQAPGKGLEWVAVISYDGSNKYYADSVKGRFTISRDNSKNTLYLQMNSLRAEDTAVYYCARGRPWYSETGTSAFDIWGQGTMVTVSS
VL: DIQMTQSPSSLSASVGDRVTITCQASQDISNYLNWYQQKPGKAPKLLIYDASNLETGVPSRFSGSGSGTDFTFTISSLQPEDIATYYCQQSDHYPTFGGGTKVEIKR
notes: also called parent anti-OX40 antibody

Legend:
[1] = biological target: T1, GITR expressed on cell surface (CHO …); experiment: FACS on CHO cells overexpressing GITR, PE-conjugated anti-human Fc detection
[2] = biological target: T2, human OX40 expressed on the surface of …; experiment: FACS on CHO-OX40 cells, PE anti-human Fc
human OX40-his = biological target: T3, human OX40-his; experiment: ForteBio Octet BLI, antibody on AHC tip, human OX40-His 100 nM in solution, monovalent
Experimental: A ForteBio affinity assay was performed according to the method reported in the literature (Estep, P, et al., High throughput solution Based measurement of antibody-antigen affinity and epitope binning MAbs, 2013, 5(2): p. 270-278). Briefly, the AHC sensor (Pall, Catalog No.: 1506091) was immersed in a SD buffer (PBS 1×, BSA 0.1%, Tween 20 0.05%) and equilibrated at room temperature, half an hour before the experiment. […] The anti-human IgG Fc biosensor AHC was immersed in each well containing the antibody solution, and immersed at room temperature for 600 s to load the samples. The sensor was then washed in the SD buffer until it returned to the baseline, and then immersed in a well containing 100 μL of the antigen solution to monitor the binding of the antibody to the antigen. The sensor was then transferred to a well containing 100 μL of the SD buffer to monitor the antibody dissociation. The rotation speed was 400 rpm and the temperature was 30° C. The background-corrected association and dissociation curves were fitted by the Octet analysis software (ForteBio) to generate the binding rate constant (kₒₙ) and dissociation rate constant (kdis), which are then used to calculate the equilibrium dissociation constant (KD).

| Binder | binding result [1] | EC50 [2] [nM] | Kd (human OX40-his) [nM] | koff (human OX40-his) [s⁻¹] | kon (human OX40-his) [M⁻¹ s⁻¹] |
| --- | --- | --- | --- | --- | --- |
| B1 | no binding |  |  |  |  |
| B2 |  | 2.19 | 215 | 0.029 | 135000 |
